In test [1] the target is T1, pepN48, first 48 residues of the extracellular N-terminus of hCXCR2 (Homo sapiens, biotin on the N-terminus).
T1 construct: human CXC chemokine receptor 2 (CXCR2), first 48 residues; also called CXCR2 N-terminal peptide; source: synthetic peptide (Chinese Peptide)
T1 chain: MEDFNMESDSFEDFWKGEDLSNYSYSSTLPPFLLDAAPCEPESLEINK
The experiment in a line: SPR; biotinylated pepN48 loaded on streptavidin chip (Series S Sensor Chip SA), antibody flowed over, Biacore T200, HBS-EP+ buffer pH 7.4. Conditions: both partners purified. On the technique in general: Surface plasmon resonance follows binding to a sensor surface in real time, without labels.

Test [2] has as its target T2, macaque CXCR2 (mcCXCR2-mCherry) on U2OS cells (Macaca mulatta (macaque species not …, UniProt A0A5F7ZQV3)).
T2 construct: macaque CXCR2; also called macaque monkey CXCR2; source: U2OS, transiently overexpressed, on cells
Description: flow cytometry on cells; U2OS cells transiently overexpressing receptor-mCherry; 2 μg mL^−1 antibody in FACS buffer (0.5% BSA in PBS pH 7.4, 2 mM EDTA), 4 °C, 15 min; Alexa Fluor 488 anti-human IgG. Conditions: one partner purified. In general terms: Flow cytometry measures light scatter and fluorescence of single cells or particles in a stream.

Test [3] addresses T3, human CXCR2 (hCXCR2)-mCherry fusion protein on U2OS cells (human, UniProt P25025).
T3 construct: human CXC chemokine receptor 2 (CXCR2); Also used here as the target of the functional rows, whose cells (Tango CXCR2-bla U2OS; CHO with hCXCR2 and Gα16; U2OS overexpressing hCXCR2) carry other hCXCR2 constructs; also called CXC chemokine receptor 2; source: U2OS, transiently overexpressed, on cells
The experiment in a line: immunostaining of cells or tissue; U2OS cells overexpressing receptor-mCherry, fixed with 4% paraformaldehyde; 2 μg mL^−1 antibody at 4 °C overnight; Alexa Fluor 488 anti-human IgG; confocal microscopy. Conditions: one partner purified.

In test [4] the target is T4, pepN48, peptide of the first 48 residues of the extracellular N-terminus of hCXCR2 (Homo sapiens, biotin labeled on its N-terminus).
T4 construct: human CXC chemokine receptor 2 (CXCR2), first 48 residues; a blank before the last K in the print was removed; also called CXCR2 N-terminal peptide; source: synthetic peptide (Chinese Peptide, Hangzhou)
T4 chain: T1 chain
Description: SPR; biotinylated pepN48 loaded on a streptavidin Series S Sensor Chip SA; antibody flowed; Biacore T200; HBS-EP+ buffer pH 7.4. Conditions: both partners purified.

Test [5] addresses T3, human CXCR2 (hCXCR2)-mCherry fusion …. The experiment in a line: flow cytometry on cells; cellular supernatants with scFv-Fc on U2OS cells with membrane-bound hCXCR2-mCherry. Conditions: partners not purified.
Test [6] has as its target T5, pepN9-19, 9-19 amino acid peptide of hCXCR2 (human).
T5 construct: human CXCR2 residues 9-19; source: synthetic peptide (Sangon Biotech) for crystallography
T5 chain: DSFEDFWKGED
Description: crystal structure; Fab mixed with pepN9-19 at a molar ratio of 1:3; hanging drop vapor diffusion, 18 °C. Conditions: both partners purified.

Test [7] deals with T3, human CXCR2 (hCXCR2)-mCherry fusion …. Description: cell-based or functional assay.

Substitutions are numbered along the chain they refer to.

T2 sequence (Q28519 whole entry): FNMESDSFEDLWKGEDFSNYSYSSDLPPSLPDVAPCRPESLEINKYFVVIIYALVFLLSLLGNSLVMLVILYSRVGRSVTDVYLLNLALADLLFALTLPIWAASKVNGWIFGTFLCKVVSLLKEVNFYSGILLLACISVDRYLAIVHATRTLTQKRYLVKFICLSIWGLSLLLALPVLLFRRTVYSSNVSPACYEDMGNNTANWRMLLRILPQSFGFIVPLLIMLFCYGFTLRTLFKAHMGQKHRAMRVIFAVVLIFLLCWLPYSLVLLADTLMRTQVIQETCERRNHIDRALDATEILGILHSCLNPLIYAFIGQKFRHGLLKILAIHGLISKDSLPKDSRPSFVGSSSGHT

B1: abN48-IgG1 (antibody, V domains shown)
VH: QVQLVQSGAEVKKPGSSVKVSCKASGGTLSSYAISWVRQAPGQGPEWMGWINPNSGGTNYAQKFQGRVTMTRDTSISTAYMELSRLRPDDTAVYYCASGYCSSTSCYDYWGQGTLVTVSS
VL: QAVLTQPSSLSASPGASVSLTCTLRSGINVGAYRIYWYQQKPGSPPQFLLRYKSDSDKQQGSGVPSRFSGSRDASANAGILLISGLRSEDEADYYCAIWHSSAWVFGGGTQLTVL
notes: VH of abN48 (from the scFv H8); complete constant domains of the IgG1 heavy chain; VL of abN48 on a complete light chain constant domain (lambda type is said of abN48-2-IgG1); IgG1; made from the scFv abN48 (H8); source: HEK293F, co-transfected heavy and light chain plasmids, purified (Protein A)
For B1, in test [1], the off-rate constant (koff) (in general, the first-order rate constant of dissociation) is 0.00035 s⁻¹ and the kon (commonly the second-order rate constant of association) was 350000 M⁻¹ s⁻¹.

B2: abN48-2-IgG1 (antibody, V domains shown)
VH: B1 VH with S103R, S105R
VL: B1 VL
notes: VH as the heavy chain of Dm1 with two changes in H-CDR3 (Kabat numbering); complete constant domains of the IgG1 heavy chain; as the light chain of Dm1 (lambda type); IgG1, lambda; also called H8-2
As to B2, in test [1], the koff came to 1.7e-05 s⁻¹ and the kon came to 940000 M⁻¹ s⁻¹.

B3: abN48-IgG1 (antibody, V domains shown)
VH: B1 VH
VL: B1 VL
notes: VH of abN48; complete constant domains of human IgG1 heavy chain; whole light chain of abN48 (VL and CL); Full-length IgG1; source: HEK293F, co-transfected heavy and light chain plasmids, purified (HiTrap Protein A)
On to B3, for which the binding result in test [2] and in test [3] was “binds” in each case. In addition, the Kd – broadly, the free concentration of one partner at which half of the binding sites on the other are occupied at equilibrium, for simple one-to-one binding – in test [4] is 0.78 nM.

B4: H8 (abN48) scFv antibody (scFv, V domains shown)
VH: B1 VH
VL: B1 VL
notes: VH and VL as in the abN48 Fab of PDB 6KVF; Expressed as scFv-Fc with the entire Fc domain of human IgG1 (pFuse, InvivoGen pfuse-hg1fc2); also called scFv-Fc; source: HEK293F, transfected (pFuse vector); in cellular supernatant, and purified (HiTrap Protein A)
For the molecule B4, the binding result in test [5] is reported as “binds”. Besides, the dissociation constant (Kd) in test [4] was 2.6 nM.

B5: abN48 Fab (Fab, V domains shown)
VH: B1 VH
VL: B1 VL
notes: Fab heavy chain of abN48; light chain of abN48; as the light chain of m2; source: Fab made following a similar protocol as for abN48-2 Fab (papain cleavage of the IgG1, purified)
For B5, the binding result in test [6] is reported as “binds”.

B6: abN48-2 Fab (Fab, V domains shown)
VH: B1 VH with S103R, S105R
VL: B1 VL
notes: Fab heavy chain of abN48-2; VH equals that of m2 (PDB 6KVF) with Ser99 to Arg99 and Ser100A to Arg100A (Kabat numbering); lambda light chain; as the light chain of m3; source: papain cleavage of abN48-2-IgG1, purified (HiTrap lambda HP, Superdex200 increase)
For the molecule B6, in test [6], the binding result is given as “binds”.

B7: abN48-2-IgG1 (antibody, V domains shown)
VH: B1 VH with S103R, S105R
VL: B1 VL
notes: VH of abN48-2; equals the VH of m2 (PDB 6KVF) with Ser99 to Arg99 and Ser100A to Arg100A in H-CDR3 (Kabat numbering); complete constant domains of human IgG1 heavy chain; whole lambda light chain; as the light chain of m2; Full-length IgG1, lambda type; also called ab48-2-IgG1; AbN4-2-IgG1; source: HEK293T (results) or HEK293F (methods), transfected, purified (HiTrap Protein A)
For the molecule B7, in test [2], the binding result is “binds”. In addition, the “partial agonist effect on Ca^2+ influx at high concentration (10–1000 nM), FLIPR, apparent EC50” value in test [7] came out at 310 nM. In test [4], this molecule gave a Kd of 0.0072 nM.

(Values after publication PMC8100106, “Selection of a picomolar antibody that targets CXCR2-mediated neutrophil activation and alleviates EAE symptoms” (Nature Communications, 2021).)
